Patent US8519051B2, “Block copolymer for drug conjugates and pharmaceutical composition” (priority 2006, dated 2013)
Counter-ions that a name gives are not always drawn. Like-named read-outs stand apart in the source and are kept apart here.

Key:
[1] = MTD previously determined using normal healthy mice; format: in vivo
Method: (§1) Male nude mice (Balb nu/nu, 5 weeks old) were purchased from Charles River Laboratories Japan, Inc., and human prostate cancer PC-3 cells were purchased from the Human Health Sciences Foundation Resources Bank. PC-3 cells that had been subcultured in a CO2 incubator were suspended in physiological saline for injection (Otsuka Pharmaceutical Co., Ltd.), and were subcutaneously injected into the back of the nude mice to a cell count of 2×10^6/50 μl per animal. Then, after keeping the nude mice for about 2 weeks, the administration of the drug was started when the mean of tumor volume reached about 50 mm^3.

[2] = system: Human prostate cancer PC-3 cells; experiment: drug efficacy study: tumor volume in PC-3-xenografted nude mice; format: in vivo, male nude mice (Balb nu/nu); conditions: tail vein, every 4 days for a total of 3 times
From the text: Human prostate cancer PC-3 cells subcutaneous transplanted to male nude mice were used as the model for evaluating drug efficacy.

in vivo = conditions: rat, 1 mg/kg
Method: Two compounds, i.e., the conjugate (13 DOX) obtained in Example 5a and MeO-PEG-pAsp (Hyd-DOX, Bn) (8 DOX) (Example 5b) prepared in method pursuant to Example 5a and having a different amount bound of DOX were used. An amount between 10-20 mg of each polymer was weighed accurately into a sample vial, to which 1 ml of dichloromethane was added to completely dissolve the polymer. Then, under the stream of nitrogen, the solvent was evaporated to prepare the polymer in the film form. Under reduced pressure, it was further dried at room temperature for 1 hour, and then 20 mM sodium phosphate buffer (pH 7.4)/5%(w/v) glucose was added to a polymer concentration of 10 mg/ml to hydrate the polymer film at 4° C. After stirring overnight at 4° C., it was subjected to ultrasonic treatment in ice chilled water for 10 minutes using the Biodisruptor (Nihonseiki Kaisha Ltd., High Power Unit). Subsequently, it was filtered with a 0.22 μm filter (Millipore, Millex™ GP PES) to prepare a micelle of the filtrate, which was used in the subsequent experiment.
To male Wistar rats (Charles River Laboratories Japan, Inc., 6-7 weeks old) under ether anesthesia, the above two micelles were administered into the tail vein under the following condition (n=3). Heparin-coated syringes were used to collect blood, and after centrifuging the blood drawn at 4° C., plasma was collected and stored at −30° C. until use.
Dose: 1 mg/kg in terms of the amount of DOX
Blood drawing timing: 5 minutes, 1, 3, 6, 9, 24, 48 hours after administration
Amount of blood drawn: 0.2-0.25 ml each time (from the jugular vein)
To 50 μl of rat plasma collected, 100 μl of acetonitrile and 50 μl of 0.4 N HCl were added in this order to make a total of 200 μl. After stirring, it was allowed to stand at room temperature for 1 hour. Subsequently, it was centrifuged (Funakoshi, Chibitan, 10,000 rpm, 10 minutes) at room temperature to collect 100 μl of the supernatant, to which 30 μl of 0.2 N NaOH, 20 μl of 1% Triton X-100, and 50 μl of 2 μg/ml of daunorubicin hydrochloride (Wako) (internal standard)/20 mM ammonium formate buffer (pH 3.0) was added in this order to make a total of 200 μl. The treatment sample liquid was filled into a HPLC sample vial, and subjected to HPLC analysis to determine the DOX concentration in the plasma.
To 50 μl of rat plasma collected, 100 μl of acetonitrile was added, centrifuged (Funakoshi, Chibitan, 10,000 rpm, 10 minutes) at room temperature to collect 50 μl of the supernatant, to which 100 μl of 2 μg/ml of daunorubicin hydrochloride (Wako) (internal standard)/20 mM sodium phosphate buffer (pH 7.4) was added. The treatment sample liquid was filled into a HPLC sample vial, and subjected to HPLC analysis to determine the DOX concentration in the plasma.
Using the values of the above (a) and (b), the concentration of polymer-conjugated DOX was calculated based on the following equation: (Polymer-conjugated DOX concentration)=(total DOX concentration)−(free DOX concentration) 4) Result of Determination of Concentration Change with Time in the Plasma
An amount between 10-20 mg each of 4 different polymers (8, 15, 20, and 39 DOX) was weighed accurately into a sample vial, to which 1 ml of dichloromethane was added to completely dissolve the polymer. Then, under the stream of nitrogen, the solvent was evaporated to prepare the polymer in the film form. Under reduced pressure, it was further dried at room temperature for 1 hour, and then 20 mM sodium phosphate buffer (pH 7.4)/5%(w/v) glucose was added to a polymer concentration of 10 mg/ml to hydrate the polymer film at 4° C. After stirring overnight at 4° C., it was subjected to ultrasonic treatment in ice chilled water for 10 minutes using the Biodisruptor (Nihonseiki Kaisha Ltd., High Power Unit). Subsequently, it was filtered with a 0.22 μm filter (Millipore, Millex™ GP PES) to prepare polymeric micelles of the filtrate, which were used in the subsequent experiment.

[3] = side effects: changes in body weight of PC-3-xenografted nude mice; conditions: tail vein, every 4 days for a total of 3 times
Method: as §1

[4] = study on pH-dependency of drug release from polymeric micelles; format: physicochemical; conditions: 37° C.
Method: To 950 μl of 20 mM ammonium formate buffer (pH 3), sodium acetate buffer (pH 5), or sodium phosphate buffer (pH 7.4) previously heated to 37° C., 50 μl of the polymeric micelles prepared in the above method were added to initiate a drug release experiment. At predetermined timing, 50 μl of the sample was collected, and instead the liquid amount was replenished with the same buffer, The free DOX concentration in the collected sample was determined by HPLC according to the above-mentioned method.

COc1cccc2c1C(=O)c1c(O)c3c(c(O)c1C2=O)C[C@@](O)(C(=O)CO)C[C@@H]3O[C@H]1C[C@H](N)[C@H](O)[C@H](C)O1 [DOX solution (Comp. Ex. 12), doxorubicin hydrochloride]
MTD ([1]; mouse, in vivo, read-out: MTD): 5 mg/kg
T/C at the maximum (tumor volume of drug group to control group) ([2]; 5 mg/kg (MTD)): 0.4

COc1cccc2c1C(=O)c1c(O)c3c(c(O)c1C2=O)C[C@@](O)(C(=O)CO)C[C@@H]3O[C@H]1C[C@H](N)[C@@H](O)[C@H](C)O1 [epirubicin hydrochloride]
AUC (in vivo; male, Wistar): 40 ng·h/mL

MeO-PEG-pAsp (Hyd-DOX) [8DOX (Comp. Ex. 5)]
AUC (in vivo; iv): 19100 ng·h/mL
retention in the plasma (in words) (in vivo; iv): relatively persistent retention in the plasma

MeO-PEG-pAsp (Hyd-DOX) [15DOX (Comp. Ex. 6)]
AUC (in vivo; iv): 7600 ng·h/mL
retention in the plasma (in words) (in vivo; iv): relatively persistent retention in the plasma

MeO-PEG-pAsp (Hyd-DOX) [20DOX (Comp. Ex. 6)]
AUC (in vivo; iv): 3100 ng·h/mL
retention in the plasma (in words) (in vivo; iv): rapidly disappear

MeO-PEG-pAsp (Hyd-DOX) [39DOX (Comp. Ex. 6)]
AUC (in vivo; iv): 1200 ng·h/mL
retention in the plasma (in words) (in vivo; iv): rapidly disappear

MeO-PEG-pAsp (Hyd-DOX) [Comparative Example 6]
decrease in body weight (maximum) ([3]; 15 mg/kg (MTD)): 13%
MTD [1]: 15 mg/kg
T/C at the maximum (tumor volume of drug group to control group) ([2]; 15 mg/kg (MTD)): 0.42

MeO-PEG-pAsp (Hyd-DOX, Bn) [8DOX (Example 5b)]
AUC (in vivo; iv): 149000 ng·h/mL
concentration of free DOX relative to the total DOX concentration in plasma (in vivo; iv): about 1/100
retention in the plasma (in words) (in vivo; iv): persistent plasma concentration

MeO-PEG-pAsp (Hyd-DOX, Bn) [13DOX (Example 5a)]
decrease in body weight (maximum) ([3]; 11 mg/kg (MTD×⅔)): 15%
AUC (in vivo; iv): 238000 ng·h/mL
T/C at the maximum (tumor volume of drug group to control group) ([2]; 11 mg/kg (MTD×⅔)): 0.32
release of DOX from the micelles ([4]; pH 3, 20 mM ammonium formate buffer): rapidly released
release of DOX from the micelles ([4]; pH 5 to 7.4 (sodium acetate / sodium phosphate buffer)): the release rate decreased

MeO-PEG-pAsp (Hyd-DOX, C4-Phenyl) [6DOX (Example 7)]
AUC (in vivo; iv): 156000 ng·h/mL

MeO-PEG-pAsp (Hyd-DOX, C8) [12DOX (Example 3)]
AUC (in vivo; iv): 90700 ng·h/mL

MeO-PEG-pAsp (Hyd-DOX, NH4) [12DOX (Comp. Ex. 7)]
AUC (in vivo; iv): 69500 ng·h/mL
AUC relative to that of Example 5 (in vivo; iv): about ¼
increase in AUC compared to the DOX solution (in vivo; iv): about 500 fold

MeO-PEG-pAsp (amide-DOX) [13DOX (Amide) (Comp. Ex. 9)]
AUC (in vivo; iv): 57900 ng·h/mL
AUC relative to that of Example 5 (in vivo; iv): about ¼
increase in AUC compared to the DOX solution (in vivo; iv): about 500 fold
